From US20160355591A1
Where two headings read alike, the source gives them in different places. Blank lines part the entries; values can stand above or below the binder they belong to.

Legend:
human serum complement [1] = assay: cell-based or functional assay
[2] = molecular target: CD74 on human cells (human) (UniProt P04233); assay: Granta-519 (MCL) cells; no mAb 15.3
[3] = molecular target: CD74 on human cells (human) (UniProt P04233); assay: RS4;11 (ALL) cells; no mAb 6.4
[4] = molecular target: CD74 on dog lymphocytes and dog lymphoma cells (dog); assay: flow cytometry, canine lymphoma aspirate 150836; none 3.4
[5] = molecular target: CD74 on human cells (human) (UniProt P04233); assay: MN60 (ALL) cells; no mAb 8.1
[6] = molecular target: CD74 on human cells (human) (UniProt P04233); assay: Kasumi-1 (AML) cells; no mAb 18.2
[7] = molecular target: CD74 on human cells (human) (UniProt P04233); assay: K562 (CML) cells; no mAb 3.2
[8] = molecular target: CD74 on dog lymphocytes and dog lymphoma cells (dog); assay: flow cytometry, canine lymphoma aspirate 150836; none 3.9
[9] = molecular target: CD74 on human cells (human) (UniProt P04233); assay: REH (ALL) cells; no mAb 3.9
[10] = molecular target: CD74 on human cells (human) (UniProt P04233); assay: GDM-1 (AML) cells; no mAb 16.8
[11] = molecular target: CD74 on human cells (human) (UniProt P04233); assay: Jeko-1 (MCL) cells; no mAb 14.3
[12] = molecular target: CD74 on human cells (human) (UniProt P04233); assay: WAC (CLL) cells; no mAb 15.8
[13] = molecular target: CD74 on human cells (human) (UniProt P04233); assay: indirect flow cytometry, Namalwa cells, FITC-GAM 2nd Ab; none 2.91
[14] = molecular target: CD74 on human cells (human) (UniProt P04233); assay: HC-1 (hairy cell leukemia) cells; no mAb 4.8
[15] = molecular target: CD74 on human cells (human) (UniProt P04233); assay: MEC-1 (CLL) cells; no mAb 4.7
[16] = molecular target: CD74 on dog lymphocytes and dog lymphoma cells (dog); assay: flow cytometry, dog lymphoma aspirate; none 3.85
[17] = molecular target: CD74 on human cells (human) (UniProt P04233); assay: 697 (ALL) cells; no mAb 4.9
[18] = molecular target: CD74 on human cells (human) (UniProt P04233); assay: Kasumi-3 (AML) cells; no mAb 9.6
[19] = molecular target: CD74 on dog lymphocytes and dog lymphoma cells (dog); assay: flow cytometry, dog lymphoma aspirate; none 3.37
[20] = molecular target: T1, CD20 on human cells (human) (UniProt P11836); assay: indirect flow cytometry, Daudi cells, FITC-GAH Fc 2nd Ab; none 3.2
T1 sequence (looked up): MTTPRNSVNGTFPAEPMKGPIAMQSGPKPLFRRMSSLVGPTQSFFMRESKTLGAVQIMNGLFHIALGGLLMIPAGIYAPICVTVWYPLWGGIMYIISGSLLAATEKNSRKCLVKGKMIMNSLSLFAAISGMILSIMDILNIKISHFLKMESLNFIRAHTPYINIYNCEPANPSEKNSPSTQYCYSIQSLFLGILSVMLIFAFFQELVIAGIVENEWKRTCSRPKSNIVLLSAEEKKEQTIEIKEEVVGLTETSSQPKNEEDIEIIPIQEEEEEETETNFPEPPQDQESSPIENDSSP

[21] = molecular target: T1, CD20 on human cells (human); assay: indirect flow cytometry, WSU-FSCCL cells, FITC-GAH Fc 2nd Ab; none 2.7
[22] = molecular target: T1, CD20 on human cells (human); assay: indirect FACS, Daudi cells, FITC-GAH Fc 2nd Ab; none 3.1
human serum complement [23] = assay: cell-based or functional assay; remark: listed apart in the source
[24] = molecular target: T2, CD20 on dog lymphocytes and dog lymphoma cells (dog) (UniProt Q3C2E2); assay: flow cytometry, dog lymphoma aspirate; none 4.48
T2 sequence (looked up): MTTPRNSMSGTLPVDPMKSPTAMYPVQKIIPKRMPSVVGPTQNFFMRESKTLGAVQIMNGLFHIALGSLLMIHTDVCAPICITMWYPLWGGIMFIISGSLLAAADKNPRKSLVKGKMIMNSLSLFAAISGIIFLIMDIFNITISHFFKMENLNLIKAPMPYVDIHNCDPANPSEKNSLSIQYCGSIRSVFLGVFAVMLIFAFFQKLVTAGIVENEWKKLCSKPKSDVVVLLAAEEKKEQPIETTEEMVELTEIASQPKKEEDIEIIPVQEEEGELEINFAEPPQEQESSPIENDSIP

[25] = molecular target: T1, CD20 on human cells (human); assay: indirect FACS, Namalwa cells, FITC-GAH Fc 2nd Ab; none 2.5
[26] = molecular target: T1, CD20 on human cells (human); assay: indirect flow cytometry, RL cells, FITC-GAH Fc 2nd Ab; none 2.4
[27] = molecular target: T1, CD20 on human cells (human); assay: indirect flow cytometry, SU-DHL-6 cells, FITC-GAH Fc 2nd Ab; none 4.6
[28] = molecular target: T2, CD20 on dog lymphocytes and dog lymphoma cells (dog); assay: flow cytometry, canine lymphoma aspirate 150836; none 3.2
[29] = molecular target: T2, CD20 on dog lymphocytes and dog lymphoma cells (dog); assay: flow cytometry, canine lymphoma aspirate 150836; none 4.5
[30] = molecular target: T1, CD20 on human cells (human); assay: indirect flow cytometry, Namalwa cells, FITC-GAH Fc 2nd Ab; none 2.6
[31] = molecular target: T1, CD20 on human cells (human); assay: indirect flow cytometry, Namalwa cells, FITC-GAH 2nd Ab; none 2.52
[32] = molecular target: T1, CD20 on human cells (human); assay: indirect FACS, Raji cells, FITC-GAH Fc 2nd Ab; none 6.8
[33] = molecular target: T1, CD20 on human cells (human); assay: indirect flow cytometry, Raji cells, FITC-GAH Fc 2nd Ab; none 6.9
[34] = molecular target: T1, CD20 on human cells (human); assay: indirect FACS, WSU-FSCCL cells, FITC-GAH Fc 2nd Ab; none 2.6
[35] = molecular target: T1, CD20 on human cells (human); assay: indirect FACS, SU-DHL-6 cells, FITC-GAH Fc 2nd Ab; none 4.6
[36] = molecular target: T1, CD20 on human cells (human); assay: indirect FACS, Ramos cells, FITC-GAH Fc 2nd Ab; none 3.1
[37] = molecular target: T1, CD20 on human cells (human); assay: indirect flow cytometry, Ramos cells, FITC-GAH Fc 2nd Ab; none 3.1
[38] = molecular target: T2, CD20 on dog lymphocytes and dog lymphoma cells (dog); assay: flow cytometry, dog lymphoma aspirate; none 3.24
[39] = molecular target: HLA-DR (human leukocyte antigen-DR) on human lymphoma and leukemia cells and human lymphocytes (human); assay: indirect flow cytometry, Namalwa cells, FITC-GAM 2nd Ab; none 2.91; control antibody (anti-CEA)

CD74 on human cells (human), sequence (P04233 whole entry): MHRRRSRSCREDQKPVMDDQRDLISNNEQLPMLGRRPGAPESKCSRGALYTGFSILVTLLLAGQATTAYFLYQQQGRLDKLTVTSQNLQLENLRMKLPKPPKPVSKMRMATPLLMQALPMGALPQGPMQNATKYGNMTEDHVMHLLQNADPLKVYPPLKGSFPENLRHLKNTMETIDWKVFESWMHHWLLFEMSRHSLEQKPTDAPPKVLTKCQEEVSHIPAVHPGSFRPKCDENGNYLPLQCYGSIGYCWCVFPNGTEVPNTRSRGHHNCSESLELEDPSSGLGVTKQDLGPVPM

B1: hL243 (humanized L243 anti-HLA-DR antibody, IgG1/K isotype) (antibody, V domains shown)
VH: QVQLQQSGSELKKPGASVKVSCKASGFTFTNYGMNWVKQAPGQGLKWMGWINTYTREPTYADDFKGRFAFSLDTSVSTAYLQISSLKADDTAVYFCARDITAVVPTGFDYWGQGSLVTVSS
VL: DIQLTQSPSSLSASVGDRVTITCRASENIYSNLAWYRQKPGKAPKLLVFAASNLADGVPSRFSGSGSGTDYTFTISSLQPEDIATYYCQHFWTTPWAFGGGTKLQIKR
complement-mediated cytotoxic effect on Daudi cells (CDC, resazurin viability), EC50 (human serum complement [1]): 2.6 nM

B2: LL1 (murine anti-human CD74 mAb) (antibody, from a related filing, V domains shown)
VH: QIQLVQSGPELKKPGETVKVTCKTSGYTFTNYGVNWIKQTPGEGLQWMGWINPNTGEPTFDDDFKGRFAFSLESSASTAFLQISNLKNEDMGTYFCSRSRGKNEAWFAYWGQGTLVTVSE
VL: DVVMTQTPLSLPVSLGDQASISCRSSQSLVHRNGNTYLHWYLQKPGQSPKLLIYTVSNRFSGVPDRFSGSGSGTDFTLKISRVEAEDLGLYFCSQSSHVPPTFGAGTKLEI
mean FL [2]: 50.8
mean FL [3]: 24.3
mean FL [4]: 4
mean FL [5]: 25.9
mean FL [6]: 23.8
mean FL [7]: 7
% Positive [8]: 6.7%
mean FL [9]: 61.1
mean FL [10]: 69.5
mean FL [11]: 32.7
mean FL [12]: 43.6
geometric mean fluorescence [13]: 17.3
mean FL [14]: 36.7
mean FL [15]: 44.7
% Positive [16]: 6.69%
mean FL [17]: 20.6
mean FL [18]: 18.4
mean FL [19]: 4.01

The next lines start with results.

geometric mean fluorescence [20]: 241
geometric mean fluorescence [21]: 8.9
geometric mean fluorescence [22]: 241
% Positive [24]: 3.96%
geometric mean fluorescence [25]: 10.1
geometric mean fluorescence [26]: 128
geometric mean fluorescence [27]: 1200
mean FL [28]: 3.3
% Positive [29]: 4%
geometric mean fluorescence [30]: 10.1
geometric mean fluorescence [31]: 6.28
geometric mean fluorescence [32]: 267
geometric mean fluorescence [33]: 267
geometric mean fluorescence [34]: 8.91
geometric mean fluorescence [35]: 1200
geometric mean fluorescence [36]: 204
geometric mean fluorescence [37]: 204
mean FL [38]: 3.25
B3: hA20 (veltuzumab, humanized anti-CD20 IgG1) (antibody, INN chains, looked up, V domains shown, part only)
VH: QVQLQQSGAEVKKPGSSVKVSCKASGYTFTSYNMHWVKQAPGQGLEWIGAIYPGMGDTSYNQKFKGKATLTADESTNTAYMELSSLRSEDTAFYYCARSTYYGGDWYFDVWGQGTTVTVSS
VL: DIQLTQSPSSLSASVGDRVTMTCRASSSVSYIHWFQQKPGKAPKPWIYATSNLASGVPVRFSGSGSGTDYTFTISSLQPEDIATYYCQQWTSNPPTFGGGTKLEIKR
complement-mediated cytotoxic effect on Daudi cells (CDC, resazurin viability), EC50 (human serum complement [23]): 0.66 nM

geometric mean fluorescence [39]: 3.32
B4: MN-14 (murine anti-carcinoembryonic antigen mAb) (antibody, from a related filing, V domains shown)
VH: EVKLLESGGGLVQSGGSLKLSCAASGFDFTTYWMSWVRQAPGKGLEWIGEIHPDSSTINYAPSLKDKFIVSRDNAKNTLYLQMSKVRSEDTALYYCASLYFGFPWFAYWGQGTPVTVSA
VL: EIQLTQSHKMMSTSVGDRVSITCKASQDVGTSVAWYQQRPGQSPKLLIYWTSTRHTGVPDRFTGSVSGTDFTLTITNVQSEDLADYFCQQYSLYRSFGGGTKLEIK
